Results taken from the supplement of paper PMC10567573.

B1: KCNA1 (parent)
chain: LKASMRELGLLIFFLFIGVILFSS
B2: FUNDC2 (parent)
chain: YIKVDWQRVEKDMKKAKEQLKIRK

Variants of: B1
Assay: protein stability index of a GFP-peptide fusion (GPS, HEK-293T) (PSI 1-6); higher = more stable
Details: c terminus: a fixed tail appended
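Further: lentivirally expressed fusions sorted by FACS into six bins by GFP to DsRed ratio, PSI derived from sequencing read proportions per bin multiplied by bin number.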

Protein stability index: each site, then its substitutions
S23: K 3.15; L 2.19; M 2.35; N 2.41; P 2.42; Q 2.13; R 3.62; T 1.44; V 2; W 2.38; Y 2.2
S24: A 2.04; C 1.19; D 2; E 2.02; F 2.02; H 2; I 1.23; K 3.45; L 1.47; M 2.42; N 2.83; P 3.1; Q 2.11; T 2; V 1.85; W 1.84; Y 2.06

Variants of: B2
Assay: as above
Details: c terminus: a fixed tail appended

Protein stability index: each site, then its substitutions
Y1: A 2.98; D 4.17; E 4.15; F 1.85; G 4.26; H 3.34; I 2.21; K 3.09; L 3.22; M 2.63; N 3.7; P 3.81; Q 3.49; R 3.6; S 3.11; T 3.07; V 2.53; W 1.99
I2: A 3.35; C 1.93; D 3.58; E 4.42; F 2.74; G 3.6; K 3.35; L 2.26; M 4.03; N 3.6; P 2.54; Q 1.75; R 2.53; S 3.37; T 2.37; V 1.83; W 2.96; Y 3
K3: A 2.13; C 2.86; D 4.58; E 2.4; F 1.98; G 2.54; H 1.39; I 1.73; L 1.67; M 1.91; N 2.22; P 2.07; R 2.18; S 1.88; V 2.79; W 2.09; Y 3.14
V4: A 3.41; C 1.56; D 1.99; E 1.81; F 1.73; G 2.36; H 2.52; I 2.53; K 1.92; L 2.23; M 1.45; N 2.13; Q 1.83; R 2.74; S 2.25; T 1.71; Y 2.4
D5: A 3.55; C 1.03; E 1.52; F 2.33; G 2.43; H 1.64; K 2.1; L 2.48; M 2.46; N 2.19; P 2.21; Q 1.62; R 1.78; S 1.47; T 2.29; W 3.34; Y 3.3
W6: A 3.39; C 2.64; D 3.77; E 2.91; F 2.63; G 2.81; H 2.83; I 2.47; K 3.09; L 2.28; M 2.46; N 3.23; P 3.15; Q 2.71; R 2.97; S 3.31; T 2.97; V 3.49; Y 2.24
Q7: A 1.79; C 2.41; D 1.49; E 1.92; F 2.84; G 2.9; H 1.45; I 2.7; K 1.95; L 2.01; N 2.47; P 1.37; R 1.43; S 1.76; T 1.73; V 2.33; Y 1.69
R8: A 2.35; C 1.04; D 2.05; E 2.15; F 1.99; G 1.71; H 2.11; I 1.82; K 2.01; L 2.21; M 2.35; N 1.79; P 2.48; Q 1.68; S 1.96; T 2.21
